B1: THAP1; numbered along this chain (parent)
chain: MVQSCSAYGCKNRYDKDKPVSFHKFPLTRPSLCKEWEAAVRRKNFKPTKYSSICSEHFTPDCFKRECNNKLLKENAVPTIFLCTEPHDKKEDLLEPQEQLPPPPLPPPVSQVDAAIGLLMPPLQTPVNLSVFCDHNYTVEDTMHQRKRIHQLEQQVEKLRKKLKTAQQRCRRQERQLEKLKEVVHFQKEKDDVSERGYVILPNDYFEIVEVPA

Variants of: B1
Experiment: THAP1 transcriptional activity (GFP+/GFP- enrichment relative to wild-type constructs) (ratio to WT); higher = more THAP1 activity (PSMB5 reporter activation)
Details: with PSMB5 promoter-GFP reporter
Description: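 Deep mutational scan of human THAP1. Site-saturation single amino acid variant library (residues 2-213) was expressed by lentivirus at MOI ~0.3 in THAP1-knockout HEK-293T cells carrying an endogenous PSMB5 promoter-GFP knock-in reporter. Five days post-transduction, BFP+ cells were FACS-sorted into GFP dim and GFP bright populations and variants were counted by Illumina sequencing. Activity is the GFP-bright/GFP-dim read fold change, mean of 2 replicates, divided by the mean fold change of wild-type (synonymous) constructs in the same screen pool; WT = 1.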

THAP1 transcriptional activity: each site, then its substitutions
T28: L 0.612; D 0.202; P 0.103; N 0.889; A 0.664; E 0.172; V 0.231; Y 0.137; Q 0.651; C 0.495; G 0.843; H 0.391; W 0.188; S 3.39; K 1.42; I 0.198; F 0.194; M 0.3; R 1.03
R41: A 1.37; G 1.52; E 0.197; H 0.827; C 0.763; I 0.146; F 0.233
S31: Q 0.998; Y 0.535; M 0.6; G 1.17; E 1.31; D 1.43; C 0.206; P 0.204; H 0.565; K 1.13; A 1.03; N 0.574; T 1.19; I 0.728; F 0.363; R 1.01; L 1.21; V 0.895
E37: Y 0.252; H 0.454; K 0.292; W 0.0974; L 1.16; G 0.195; R 0.157; Q 0.337; P 0.245; V 0.484; M 0.792; I 0.988; C 0.963; F 0.177; N 0.451; T 0.905; D 0.182; A 0.542; S 0.558
R29: D 0.187; I 0.134; C 0.137; L 0.0833; E 0.127; F 0.154; N 0.536; V 0.177; G 0.131; W 0.129; K 0.357; M 0.162; P 0.135; T 0.12; Q 0.36; S 0.134; H 0.211; Y 0.118; A 0.122
K34: Y 0.316; H 0.459; M 0.397; C 0.284; I 0.528; E 0.59; V 0.529; A 0.749; L 0.613; G 0.217; F 0.281; D 0.207; N 0.391; P 0.0748; S 0.646; Q 0.971; R 0.841; T 0.337; W 0.233
L27: V 0.488; I 0.729; Q 0.235; F 0.503; N 0.0759; G 0.0873; E 0.0928; P 0.103; A 0.142; R 0.23; T 0.31; H 0.0857; W 0.263; S 0.183; D 0.111; K 0.111; M 0.41; C 0.14; Y 0.304
H23: M 0.0825; V 0.0823; R 0.084; T 0.0534; P 0.161; S 0.127; Y 0.179; N 0.0799; W 0.0807; Q 0.0718
C33: I 0.159; F 0.17; H 0.173; E 0.0749; P 0.117; Y 0.162; N 0.177; L 0.708; A 0.499; Q 0.193; D 0.11; K 0.22; T 0.142; S 0.242; M 0.188; R 0.15; W 0.11; V 0.301
K24: P 0.125; R 1.73; Q 0.0996; L 0.156; D 0.116; F 0.1; E 0.138; S 0.088; C 0.146; V 0.121; M 0.118; G 0.13; I 0.0809; T 0.109; W 0.156; H 0.345; A 0.122; Y 0.11; N 0.0904
E35: Q 1.42; M 0.787; W 0.203; G 0.183; H 0.328; V 0.479; S 0.44; K 0.751; L 1.18; A 0.556; P 0.243; D 0.688; R 0.909; Y 0.266; I 0.451; C 0.317; T 0.473; F 0.223
A39: M 0.752; F 0.283; K 0.9; D 0.172; W 0.289; I 0.271; L 0.253; P 0.143; N 0.865; R 0.673; V 0.252; Q 0.502; G 0.131; H 0.601; E 0.168; T 0.26; Y 0.413; S 0.512; C 0.272
W36: I 0.0405; G 0.0718; Y 0.178; H 0.187; D 0.159; N 0.101; F 0.221; C 0.248; T 0.143; L 0.338; S 0.197; P 0.167; K 0.123; M 0.182; E 0.13; Q 0.18; V 0.138; R 0.107; A 0.0783
A38: G 0.417; Q 0.891; H 0.797; E 0.41; D 1; I 0.735; T 0.773; K 1.34; R 1.14; M 0.788; C 0.377; N 1.08; S 0.593; P 0.09; V 0.684; F 0.511; W 0.234
L32: M 0.357; G 0.156; E 0.135; Q 0.378; N 0.173; F 0.14; H 0.17; S 0.21; D 0.155; P 0.113; R 0.31; C 0.199; Y 0.135; K 0.267; I 0.906; A 0.175; T 0.295; V 0.794; W 0.161
P26: G 0.0891; Y 0.208; K 0.155; E 0.157; I 0.178; H 0.0688; V 0.127; R 0.098; A 0.13; D 0.0858; L 0.104; Q 0.222; C 0.106; W 0.0853; S 0.0994; T 0.0945; F 0.0724; N 0.147
V40: R 0.1; W 0.169; N 0.136; P 0.128; Q 0.142; F 0.119; L 0.867; D 0.0854; M 0.853; Y 0.101; I 1.6; T 0.238; C 0.665; K 0.127; G 0.0879; A 0.221; E 0.113; H 0.17; S 0.14
F25: E 0.148; K 0.0509; I 0.145; D 0.123; Y 0.203; V 0.0907; M 0.131; P 0.105; G 0.182; W 0.156; R 0.106; C 0.125; Q 0.0935; L 0.117; N 0.108; S 0.0861; A 0.123; T 0.0714; H 0.115
P30: R 0.396; M 0.245; C 0.123; A 0.476; G 0.282; T 0.349; Q 0.583; K 0.428; S 0.33; F 0.129; I 0.278; N 0.33; L 0.261; H 0.384; V 0.418; E 0.399; D 0.254; Y 0.21; W 0.0759
